Source: paper PMC10229621

Molecular target: T4 capsid (empty HocΔSocΔ head from the 10-amber.13-amber.HocΔ.SocΔ T4 mutant) (bacteriophage T4) (UniProt P19896)
Assay: co-sedimentation

Row | Substance | stoichiometry N (molecules per capsid) | stoichiometry N (copies per capsid)
1 | Cpf1-Soc | 450 | –
2 | Cre-Hoc | 95 | –
3 | Cre-Soc | 630 | –
4 | GFP-Soc | 660 | –
5 | NLS-Cas9-Soc | 550 | –
6 | RGD-Hoc | 85 | –
7 | Soc-RGD | 710 | –
8 | Soc-TAT | 750 | 520
9 | β-Gal-Soc | 320 | –
